T1: human gp39 (cell-expressed, full length) (human, UniProt P29965 1-261)
T1 construct: whole, on cells; also called CD40 ligand; CD40-L
T1 sequence (looked up): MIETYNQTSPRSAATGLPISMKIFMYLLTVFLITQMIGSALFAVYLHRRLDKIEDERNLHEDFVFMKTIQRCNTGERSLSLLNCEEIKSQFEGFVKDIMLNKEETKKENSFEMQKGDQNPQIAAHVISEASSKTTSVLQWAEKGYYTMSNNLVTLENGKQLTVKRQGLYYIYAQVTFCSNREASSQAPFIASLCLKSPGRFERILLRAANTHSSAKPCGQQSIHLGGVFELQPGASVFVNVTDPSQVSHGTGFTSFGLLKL

B1: 106 sFv-Ig (scFv)
scFv: DIQMTQSPASLSASVGETVTITCRASETIYSYLAWYQQKQGRSPQLLVYNAKTLAEGVPSRFSGSGSGTQFSLKINSLQPEDFGSYYCQHHYNTPLTFGTGTKLELKRGGGGSGGGGSGGGGSEVKLVESGGGLVKPGGSLKLSCTTSGFTFNNYAMSWVRQTPEKRLEWVASISSGDSTYYFDSVRGRFTISRDNARNILYLQMSSLRSEDTAMYYCARHYDYDSYAMDYWGQGTSVTVS
notes: VL-linker-VH-human Ig, monomeric; L6 V kappa leader used for secretion; not shown: hinge-CH2-CH3 of human IgG1
B2: 39-1.106 (antibody, mouse IgG1, V domains shown)
VH: EVKLVESGGGLVKPGGSLKLSCTTSGFTFNNYAMSWVRQTPEKRLEWVASISSGDSTYYFDSVRGRFTISRDNARNILYLQMSSLRSEDTAMYYCARHYDYDSYAMDYWGQGTSVTVS
VL: DIQMTQSPASLSASVGETVTITCRASETIYSYLAWYQQKQGRSPQLLVYNAKTLAEGVPSRFSGSGSGTQFSLKINSLQPEDFGSYYCQHHYNTPLTFGTGTKLELKR
notes: murine IgG1, kappa
B3: 39-1.7 (antibody, mouse IgG2b, V domains shown)
VH: EVQLQQSGPELVKPGASVKMSCKASGYTFTDYYMKWVKQSHGKSLEWIGNINPNNGDTFFNQKFEGKATLTVDKSSSAAYMQLNSLTSEDSAVKKCARGPGTNYFDYWGQGTTLTVSS
VL: DIVLTQSPVSLAVSLGQRVTISCRASQSVSSSTNSYMHWYQQKPGQPPKLLIKYASNLESGVPARFSGSGSGTDFTLNIHPVEEEDTATYYCQHSWEIPFTFGSGTKLEIRR

Legend:
[1] = target: T1, human gp39 (cell-expressed, full length); test: saturation binding of iodinated protein to BMS-10 Jurkat cells
[2] = target: T1, human gp39 (cell-expressed, full length); test: cell-based or functional assay
[3] = target: sgp39 mutant N180/A (murine; human); test: ELISA on captured mutant sgp39
[4] = target: sgp39 mutant Y145/A (murine; human); test: ELISA on captured mutant sgp39
[5] = target: sgp39 mutant F201/A-E202/A (murine; human); test: ELISA on captured mutant sgp39
[6] = target: sgp39 mutant S131/A-T135/A (murine; human); test: ELISA on captured mutant sgp39
[7] = target: sgp39 mutant K143/A (murine; human); test: ELISA on captured mutant sgp39
[8] = target: sgp39 mutant E129/A (murine; human); test: ELISA on captured mutant sgp39
[9] = target: T1, human gp39 (cell-expressed, full length); test: saturation binding of radiolabeled protein to gp39+ Jurkat cells

Binder	Kd [1] [nM]	IgG synthesis, % of medium only control, 0.94 x10^12 binding sites/ml [2] [%]	IgG synthesis, % of medium only control, 1.88 x10^12 binding sites/ml [2] [%]	IgG synthesis, % of medium only control, 3.76 x10^12 binding sites/ml [2] [%]	IgG synthesis, % of medium only control, 7.53 x10^12 binding sites/ml [2] [%]	IgM synthesis, % of medium only control, 0.94 x10^12 binding sites/ml [2] [%]	IgM synthesis, % of medium only control, 1.88 x10^12 binding sites/ml [2] [%]	IgM synthesis, % of medium only control, 3.76 x10^12 binding sites/ml [2] [%]	IgM synthesis, % of medium only control, 7.53 x10^12 binding sites/ml [2] [%]	% of binding to wild-type sgp39 [3] [%]	% of binding to wild-type sgp39 [4] [%]	% of binding to wild-type sgp39 [5] [%]	% of binding to wild-type sgp39 [6] [%]	% of binding to wild-type sgp39 [7] [%]	% of binding to wild-type sgp39 [8] [%]	fold greater affinity than 106 sFv-Ig [9] [fold]
B1	1.6	21	10	12	14	19	12	12	12	–	–	–	–	–	–	–
B2	0.4	37	26	24	11	34	27	19	25	144	124	9	113	52	130	~3
B3	–	60	11	17	12	64	29	24	14	93	106	112	89	5	70	–

Source: patent EP1728864A1 (dated 2006)
